Measured values published in patent US9057727B2, “Screening methods using G-protein coupled receptors and related compositions” (The General Hospital Corporation, priority 2007, dated 2015).
Ends that are not written are not given here. Peptide text beside a SMILES is read from it.

What was measured:
[1] = biological target: T1, human PTHR, G protein-uncoupled conformation (R^0) (Homo sapiens, UniProt Q03431); assay: Competition binding to R0 conformation of hPTHR (COS-7 membranes, GTPγS, 125I-PTH(1-34) tracer); settings: for R0:RG: Table 5, fold weaker affinity for R0 than RG; for screen human PIR R0 (% parent): parent PTHrP(1-28)NH
T1 construct: expressed in transfected cells; host or cells: COS-7, transient (Fugene-6)
T1 sequence (Q03431 27-593): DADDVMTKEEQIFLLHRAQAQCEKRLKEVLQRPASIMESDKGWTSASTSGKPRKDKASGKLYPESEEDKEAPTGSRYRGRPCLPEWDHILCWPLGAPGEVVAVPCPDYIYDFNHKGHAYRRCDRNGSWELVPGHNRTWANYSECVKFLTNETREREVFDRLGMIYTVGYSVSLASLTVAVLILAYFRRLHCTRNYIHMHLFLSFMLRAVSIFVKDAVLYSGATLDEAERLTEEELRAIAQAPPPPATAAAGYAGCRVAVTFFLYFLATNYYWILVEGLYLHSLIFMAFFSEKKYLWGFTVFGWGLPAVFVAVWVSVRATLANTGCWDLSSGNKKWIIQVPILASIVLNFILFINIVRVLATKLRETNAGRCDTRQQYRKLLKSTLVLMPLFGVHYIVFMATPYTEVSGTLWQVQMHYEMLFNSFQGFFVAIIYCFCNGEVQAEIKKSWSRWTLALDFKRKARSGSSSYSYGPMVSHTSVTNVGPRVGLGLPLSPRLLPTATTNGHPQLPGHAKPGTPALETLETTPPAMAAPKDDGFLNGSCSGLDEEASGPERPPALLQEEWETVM
Procedure: Membranes were prepared from COS-7 cells transfected with the hPTHR alone. GTPγS ([…]) was added to the binding reactions so as to functionally uncouple receptor-heterotrimeric G protein complexes, thus enriching for the R^0 (and R) conformations, relative to RG.
Reactions contained a total membrane protein concentration of 20 to 100 μg/mL, and a total radioactivity concentration of approximately 150,000 cpm/ml. Unlabeled peptide ligands and/or GTPγS (Sigma-Aldrich Inc. St. Louis, Mo.) were added to the reactions as indicated.
Membranes, tracer radioligand, and various concentrations of unlabeled ligands and/or GTPγS were incubated in the wells for 90 minutes, following which, the reaction plates were processed by rapid vacuum filtration to separate bound from free radioligand, as described above. […] For both radioligands, the non-specific binding was determined in reactions containing a saturating concentration of the unlabeled analog of the radioligand. The specifically bound radioactivity was calculated as a percent of the radioactivity specifically bound in the absence of a competing ligand or GTPγS.
To assess the capacities of various unlabeled peptide ligands to bind to the G protein-uncoupled and G protein-coupled PTHR conformations (R^0 and RG, respectively), membranes were prepared from transiently transfected COS-7 cells and the following assay conditions.

[2] = test system: LLCPK1-B64 cells or SaOS-2 cells; assay: cAMP screen of substituted PTHrP(1-28) analogs (% parent); assay type: cell-based; settings: parent PTHrP(1-28)NH
Procedure: Alanine substitution at position 18, 22, 25 and 26 increased activity in at least one cell type. These positions were further substituted to various types of amino acids, and cAMP activity was analyzed in LLCPK1-B64 cells (FIG. 27C) or SaOS-2 cells (FIG. 27D). Cells were treated with analogs at 3×10^−9M in the presence of IBMX for 30 minutes at room temperature. Responses for each analog were normalized to the response for the parent (native) PTHrP(1-28) peptide. Alanine substitutions were A^15 to A^17 (SEQ ID NO:152-154), A^18 (SEQ ID NO:34), A^19 to A^21 (SEQ ID NO:155-157), A^22 (SEQ ID NO:39), A^23 to A^25 (SEQ ID NO:158-160), A^26 (SEQ ID NO:46), and A^27 to A^28 (SEQ ID NO:161-162). Substitutions at position 18 were A^18 (SEQ ID NO: 34), G^18 (SEQ ID NO:163), S^18 (SEQ ID NO:35), M^18 (SEQ ID NO:36), L^18 (SEQ ID NO:164), F^18 (SEQ ID NO:37), N^18 (SEQ ID NO:165), E^18 (SEQ ID NO:38), and K^18 (SEQ ID NO:166). Substitutions at position 22 were A^22 (SEQ ID NO:39), G^22 (SEQ ID NO:167), and S^22 to K^22 (SEQ ID NO:40-45). Substitutions at position 26 were A^26 (SEQ ID NO:46), G^26 (SEQ ID NO:168), S^26 (SEQ ID NO:47), L^26 (SEQ ID NO:169), N^26 (SEQ ID NO:48), W^26 to E^26 (SEQ ID NO:170-171), and K^26 to R^26 (SEQ ID NO:49-50). Substitutions at position 25 were G^25 to S^25 (SEQ ID NO:172-173), L^25 (SEQ ID NO:51), N^25 (SEQ ID NO:174), W^25 (SEQ ID NO:52), E^25 (SEQ ID NO:175), and K^25 to R^25 (SEQ ID NO:53-54). […]

[3] = biological target: T2, human PTHR, G protein-coupled conformation (RG) (Homo sapiens, UniProt Q03431); assay: Competition binding to RG conformation of hPTHR (COS-7 membranes, GαsND, 125I-[Aib1,3,M]PTH(1-15) tracer); settings: parent PTHrP(1-28)NH
T2 construct: expressed in transfected cells; host or cells: COS-7, transient (Fugene-6); membranes
T2 sequence (Q03431 27-593): T1 sequence (Q03431 27-593)

Row | Molecule | R0:RG [1] | screen human PIR R0 (% parent) [1] | screen cAMP (% parent) [2] | screen human PIR RG (% parent) [3]
1 | CSCC[C@H](NC(=O)[C@H](CC(C)C)NC(=O)[C@H](CCC(N)=O)NC(=O)[C@H](Cc1c[nH]cn1)NC(=O)[C@H](CCC(=O)O)NC(=O)[C@H](CO)NC(=O)[C@@H](NC(=O)[C@@H](N)CO)C(C)C)C(=O)N[C@@H](Cc1c[nH]cn1)C(=O)N[C@@H](CC(N)=O)C(=O)N[C@@H](CC(C)C)C(=O)NCC(=O)N[C@@H](CCCCN)C(=O)N[C@@H](Cc1c[nH]cn1)C(=O)N[C@@H](CC(C)C)C(=O)N[C@@H](CC(N)=O)C(=O)N[C@@H](CO)C(=O)N[C@@H](CCSC)C(=O)N[C@@H](CCC(=O)O)C(=O)N[C@@H](CCCNC(=N)N)C(=O)N[C@H](C(=O)N[C@@H](CCC(=O)O)C(=O)N[C@@H](Cc1c[nH]c2ccccc12)C(=O)N[C@@H](CC(C)C)C(=O)N[C@@H](CCCNC(=N)N)C(=O)N[C@@H](CCCCN)C(=O)N[C@@H](CCCCN)C(=O)N[C@@H](CC(C)C)C(=O)N[C@@H](CCC(N)=O)C(=O)N[C@@H](CC(=O)O)C(=O)N[C@H](C(=O)N[C@@H](Cc1c[nH]cn1)C(=O)N[C@@H](CC(N)=O)C(=O)N[C@@H](Cc1ccccc1)C(N)=O)C(C)C)C(C)C [[His^5]hPTH(1-34)NH2] (H-SVSEHQLMHNLGKHLNSMERVEWLRKKLQDVHNF-NH2; N-terminus assumed) | 160 |  |  | 
2 | CSCC[C@H](NC(=O)[C@H](CC(C)C)NC(=O)[C@H](CCC(N)=O)NC(=O)[C@H](Cc1c[nH]cn1)NC(=O)[C@H](CCC(=O)O)NC(=O)[C@H](CO)NC(=O)[C@@H](NC(=O)[C@H](C)N)C(C)C)C(=O)N[C@@H](Cc1c[nH]cn1)C(=O)N[C@@H](CC(N)=O)C(=O)N[C@@H](CC(C)C)C(=O)NCC(=O)N[C@@H](CCCCN)C(=O)N[C@@H](Cc1c[nH]cn1)C(=O)N[C@@H](CC(C)C)C(=O)N[C@@H](C)C(=O)N[C@@H](CO)C(=O)N[C@H](C(=O)N[C@@H](CCC(=O)O)C(=O)N[C@@H](CCCNC(=N)N)C(=O)N[C@@H](CCSC)C(=O)N[C@@H](CCC(N)=O)C(=O)N[C@@H](Cc1c[nH]c2ccccc12)C(=O)N[C@@H](CC(C)C)C(=O)N[C@@H](CCCNC(=N)N)C(=O)N[C@@H](CCCCN)C(=O)N[C@@H](CCCCN)C(=O)N[C@@H](CC(C)C)C(=O)N[C@@H](CCC(N)=O)C(=O)N[C@@H](CC(=O)O)C(=O)N[C@H](C(=O)N[C@@H](Cc1c[nH]cn1)C(=O)N[C@@H](CC(N)=O)C(=O)N[C@@H](Cc1ccccc1)C(N)=O)C(C)C)C(C)C [[His^5]rPTH(1-34)NH2] (H-AVSEHQLMHNLGKHLASVERMQWLRKKLQDVHNF-NH2; N-terminus assumed) | 138 |  |  | 
3 | CC[C@H](C)[C@H](NC(=O)[C@H](CCC(=O)O)NC(=O)[C@H](CO)NC(=O)[C@@H](NC(=O)[C@H](C)N)C(C)C)C(=O)N[C@@H](CCC(N)=O)C(=O)N[C@@H](CC(C)C)C(=O)N[C@@H](CCSC)C(=O)N[C@@H](Cc1c[nH]cn1)C(=O)N[C@@H](CC(N)=O)C(=O)N[C@@H](CC(C)C)C(=O)NCC(=O)N[C@@H](CCCCN)C(=O)N[C@@H](Cc1c[nH]cn1)C(=O)N[C@@H](CC(C)C)C(=O)N[C@@H](C)C(=O)N[C@@H](CO)C(=O)N[C@H](C(=O)N[C@@H](CCC(=O)O)C(=O)N[C@@H](CCCNC(=N)N)C(=O)N[C@@H](CCSC)C(=O)N[C@@H](CCC(N)=O)C(=O)N[C@@H](Cc1c[nH]c2ccccc12)C(=O)N[C@@H](CC(C)C)C(=O)N[C@@H](CCCNC(=N)N)C(=O)N[C@@H](CCCCN)C(=O)N[C@@H](CCCCN)C(=O)N[C@@H](CC(C)C)C(=O)N[C@@H](CCC(N)=O)C(=O)N[C@@H](CC(=O)O)C(=O)N[C@H](C(=O)N[C@@H](Cc1c[nH]cn1)C(=O)N[C@@H](CC(N)=O)C(=O)N[C@@H](Cc1ccccc1)C(N)=O)C(C)C)C(C)C [rPTH(1-34)NH2, reference compound] | 7 |  |  | 
4 | A18,22,26-PTHrP(1-28) (AVSEHQLLHDKGKSIQDARRRAFLHALI-NH2) [A18, 22, 26-PTHrP(1-28)NH] |  | 160 % parent | 343 % parent | 167 % parent
5 | A18,26,L22-PTHrP(1-28) (AVSEHQLLHDKGKSIQDARRRLFLHALI-NH2) [A18, 26, L22-PTHrP(1-28)NH] |  | 133 % parent | 252 % parent | 163 % parent
6 | A18,26,N22-PTHrP(1-28) (AVSEHQLLHDKGKSIQDARRRNFLHALI-NH2) [A18, 26, N22-PTHrP(1-28)NH] |  | 136 % parent | 265 % parent | 161 % parent
7 | A18,26,S22-PTHrP(1-28) (AVSEHQLLHDKGKSIQDARRRSFLHALI-NH2) [A18, 26, S22-PTHrP(1-28)NH] |  | 133 % parent | 229 % parent | 148 % parent
8 | A18,26,W22-PTHrP(1-28) (AVSEHQLLHDKGKSIQDARRRWFLHALI-NH2) [A18, 26, W22-PTHrP(1-28)NH] |  | 126 % parent | 188 % parent | 120 % parent
9 | A18,L22,K26-PTHrP(1-28) (AVSEHQLLHDKGKSIQDARRRLFLHKLI-NH2) [A18, L22, K26-PTHrP(1-28)NH] |  | 160 % parent | 350 % parent | 177 % parent
10 | A18,N22,K26-PTHrP(1-28) (AVSEHQLLHDKGKSIQDARRRNFLHKLI-NH2) [A18, N22, K26-PTHrP(1-28)NH] |  | 139 % parent | 326 % parent | 172 % parent
11 | A18,W22,K26-PTHrP(1-28) (AVSEHQLLHDKGKSIQDARRRWFLHKLI-NH2) [A18, W22, K26-PTHrP(1-28)NH] |  | 136 % parent | 267 % parent | 115 % parent
12 | E18,K22,26-PTHrP(1-28) (AVSEHQLLHDKGKSIQDERRRKFLHKLI-NH2) [E18, K22, 26-PTHrP(1-28)NH] |  | 119.8 % parent | 374 % parent | 208 % parent
13 | E18,K22,A26-PTHrP(1-28) (AVSEHQLLHDKGKSIQDERRRKFLHALI-NH2) [E18, K22, A26-PTHrP(1-28)NH] |  | 106.1 % parent | 315 % parent | 192 % parent
14 | E18,L22,A26-PTHrP(1-28) (AVSEHQLLHDKGKSIQDERRRLFLHALI-NH2) [E18, L22, A26-PTHrP(1-28)NH] |  | 52.5 % parent | 139 % parent | 125 % parent
